Reference: patent US20220226473A1, “Nucleic acid nanocarrier drug and preparation method thereof, pharmaceutical composition and application thereof” (BAI YAO ZHI DA (BEIJING) NANOBIO TECHNOLOGY CO., LTD., priority 2018, published 2022)
{Biotin} = biotin of the strand

B1: R-15: extension fragment deformation+core short-sequence RNA nanoparticle, SEQ ID NO: 120-122, a-strand 3′ biotin, 2′F (nucleic acid)
chain 1: GCGGCGAGCGGCGAGGAGCGUUGGGGCCGGAGGCCGG
chain 2: CCGGCCUCCGGCCCCUUCGGGGCCAGCCGCC
chain 3: GGCGGCAGGCCCCCAUAGCCCUCGCCGCUCGCCGC
modifications: chain 1: 2'-fluoro at CU, RNA at AG, 3' {Biotin}, backbone not given here; chain 2: 2'-fluoro at CU, RNA at AG, backbone not given here; chain 3: 2'-fluoro at CU, RNA at AG, backbone not given here; three-strand RNA nanoparticle
B2: R-17: extension fragment deformation+core short-sequence RNA nanoparticle, SEQ ID NO: 126-128, 3′ biotin, 2′F (nucleic acid)
chain 1: GCGGCGAGCGGCGAGGAGCGUUGGGGCCGGAGGCCGG
chain 2: CCGGCCUCCGGCCCCUUCGCCGCCAGCCGCC
chain 3: GGCGGCAGGCGGCCAUAGCCCUCGCCGCUCGCCGC
modifications: chain 1: 2'-fluoro at CU, RNA at AG, 3' {Biotin}, backbone not given here; chain 2: 2'-fluoro at CU, RNA at AG, backbone not given here; chain 3: 2'-fluoro at CU, RNA at AG, backbone not given here; three-strand RNA nanoparticle
B3: R-19: extension fragment deformation+core short-sequence RNA nanoparticle, SEQ ID NO: 132-134, 3′ biotin, 2′F (nucleic acid)
chain 1: GCGGCGAGCGGCGAGCAGCGUUCGGGCCGGAGGCCGG
chain 2: CCGGCCUCCGGCCCGUUCGGCCCCAGCCGCC
chain 3: GGCGGCAGGGGCCCAUAGCGCUCGCCGCUCGCCGC
modifications: chain 1: 2'-fluoro at CU, RNA at AG, 3' {Biotin}, backbone not given here; chain 2: 2'-fluoro at CU, RNA at AG, backbone not given here; chain 3: 2'-fluoro at CU, RNA at AG, backbone not given here; three-strand RNA nanoparticle carrier
B4: R-16: extension fragment deformation+core short-sequence RNA nanoparticle, SEQ ID NO: 123-125, 3′ biotin, 2′F (nucleic acid)
chain 1: GCGGCGAGCGGCGAGCAGCGUUCGGGCCGGAGGCCGG
chain 2: CCGGCCUCCGGCCCGUUCGCCGCCAGCCGCC
chain 3: GGCGGCAGGCGGCCAUAGCGCUCGCCGCUCGCCGC
modifications: chain 1: 2'-fluoro at CU, RNA at AG, 3' {Biotin}, backbone not given here; chain 2: 2'-fluoro at CU, RNA at AG, backbone not given here; chain 3: 2'-fluoro at CU, RNA at AG, backbone not given here; three-strand RNA nanoparticle
B5: R-20: extension fragment deformation+core short-sequence RNA nanoparticle, SEQ ID NO: 135-137, 3′ biotin, 2′F (nucleic acid)
chain 1: GCGGCGAGCGGCGACGAGCGUUGCGGCCGGAGGCCGG
chain 2: CCGGCCUCCGGCCGCUUCGCCGCCAGCCGCC
chain 3: GGCGGCAGGCGGCCAUAGCCGUCGCCGCUCGCCGC
modifications: chain 1: 2'-fluoro at CU, RNA at AG, 3' {Biotin}, backbone not given here; chain 2: 2'-fluoro at CU, RNA at AG, backbone not given here; chain 3: 2'-fluoro at CU, RNA at AG, backbone not given here; three-strand RNA nanoparticle carrier
B6: R-18: extension fragment deformation+core short-sequence RNA nanoparticle, SEQ ID NO: 129-131, 3′ biotin, 2′F (nucleic acid)
chain 1: GCGGCGAGCGGCGAGCAGCGUUCGGGCCGGAGGCCGG
chain 2: CCGGCCUCCGGCCCGUUCGGCGCCAGCCGCC
chain 3: GGCGGCAGGCGCCCAUAGCGCUCGCCGCUCGCCGC
modifications: chain 1: 2'-fluoro at CU, RNA at AG, 3' {Biotin}, backbone not given here; chain 2: 2'-fluoro at CU, RNA at AG, backbone not given here; chain 3: 2'-fluoro at CU, RNA at AG, backbone not given here; RNA nanoparticle drug carrier
B7: R-21: extension fragment deformation+core short-sequence RNA nanoparticle, SEQ ID NO: 138-140, 3′ biotin, 2′F (nucleic acid)
chain 1: GCGGCGAGCGGCGACGAGCGUUGCGGCCGGAGGCCGG
chain 2: CCGGCCUCCGGCCGCUUCGGCGCCAGCCGCC
chain 3: GGCGGCAGGCGCCCAUAGCCGUCGCCGCUCGCCGC
modifications: chain 1: 2'-fluoro at CU, RNA at AG, 3' {Biotin}, backbone not given here; chain 2: 2'-fluoro at CU, RNA at AG, backbone not given here; chain 3: 2'-fluoro at CU, RNA at AG, backbone not given here; three-strand RNA nanoparticle carrier

What was measured:
Format in all cases: physicochemical
[1] = Particle size measurement (DLS hydrodynamic size); details: DLS hydrodynamic size
Description: 1. Preparing a potential sample (conventional-sequence DNA self-assembly product D-7) and putting into a sample pool, opening a sample pool cover of an instrument, and placing the instrument;
2. opening software, and clicking a menu, so a manual measurement parameter setting dialog box appears;
3. setting a software detection parameter; and then
4. clicking Ok to complete the settings, when a measurement dialog box appears, clicking Start to start, a DLS measurement value result of a hydrodynamic size of the self-assembly product D-7 is shown below in Table 40: […]

[2] = Drug loading rate of nucleic acid nanoparticles (chemical loading, absorbance standard curve); parameters: unit not given here; details: chemical loading method of Embodiment 5
Description: According to the chemical loading method (unless otherwise specified, the method is the same as that of Embodiment 5) of Embodiment 5, the RNA nanoparticles formed by the self-assembly of the previous R-15, R-16, R-17, R-18, R-19, R-20 and R-21 in Embodiment 9, and the DNA nanoparticles formed by the self-assembly of the D-8, D-9, D-10, D-11, D-12, D-13 and D-14 in Embodiment 10 are respectively used as doxorubicin loading carriers, doxorubicin loading rates measured are respectively as follows:
According to the chemical loading method (unless otherwise specified, the method is the same as that of Embodiment 5) of Embodiment 5, the DNA nanoparticles formed by the self-assembly of the previous D-10 and D-14 in Embodiment 10 are used as a daunorubicin loading carrier.
According to a chemical loading method of Embodiment 5 (unless otherwise specified, the method is the same as that of Embodiment 5, the same molar number of the epirubicin is used as a loading amount), nucleic acid nanoparticles (a molecular weight is 29550, it is similar to the RNA nanoparticles in Embodiment 1, and a difference is that a fluorescent label on a c-strand is Cy5) are used as a carrier, and respectively loaded with: epirubicin, methotrexate, pirarubicin, daunorubicin, […], 10-hydroxycamptothecin, aspirin and gemcitabine.
Herein, when a standard curve is drawn, the absorbance of the above drugs on the microplate reader is measured respectively. The absorbance of the epirubicin, methotrexate, pirarubicin, daunorubicin, […], 10-hydroxycamptothecin, aspirin and gemcitabine is respectively detected at the following wavelengths: 492 nm, 303 nm, 492 nm, 492 nm, 265 nm, 384 nm, 225 nm and 268 nm. The standard curves obtained correspondingly are respectively shown in FIG. 48a, FIG. 49, FIG. 50sa, FIG. 51, FIG. 52, FIG. 53, FIG. 54a and FIG. 55. […]

[3] = TM value detection by solubility curve method (SYBR Green I); details: RNA nanoparticles; temperature corresponding to ½ RFUmax in 20 to 90 DEG C.
Method: A solubility curve method is used to detect TM values of the 7 groups of the extension fragment deformation+core short-sequence RNA nanoparticles, and the samples are consistent with the potential samples.
(1) After the sample is diluted with ultrapure water, 5 μg of the diluted sample is mixed with 2 μL of SYBR Green I dye (diluted by 1:200), a final volume is 20 μL, and the dilution concentration is as follows:
(2) It is incubated for 30 min in the dark at a room temperature; and
(3) On-machine detection is performed, a program is set to start at 20 DEG C., the temperature rises per second from 0.1 DEG C. to 95 DEG C., and reading is performed every 5 s.
Due to the particularity of the RNA samples, a temperature corresponding to ½ RFUmax in a range of 20 to 90 DEG C. is used as a sample Tm value in this test.
A solubility curve method is used to detect TM values of the 7 groups of the extension fragment deformation+core short-sequence DNA nanoparticles, and the samples are consistent with the potential samples.
(1) After the sample is diluted with ultrapure water, 5 μg of the diluted sample is mixed with 2 μL of SYBR Green I dye (diluted by 1:200). a final volume is 20 μL, and the dilution concentration is as follows: […]

[4] = Electric potential (zeta potential) measurement of self-assembly products; details: result over 3 detections, at 25 DEG C.
Method: Measurement method: preparing a potential sample (the self-assembly product is dissolved in ultrapure water) and putting into a sample pool, opening a sample pool cover of an instrument, and placing the instrument;
opening software, clicking a menu MeasUre€ManUal, so a manual measurement parameter setting dialog box appears;
setting a software detection parameter;
and then clicking Ok to complete the settings, after a measurement dialog box appears, clicking start to start.
and then clicking Ok to complete the settings, after a measurement dialog box appears, clicking Start to start.
Measurement method: preparing a potential sample (the self-assembly product is dissolved in ultrapure water) and putting into a sample pool, opening a sample pool cover of an instrument, and placing the instrument:
Measurement result potential detection results of the 7 groups of the extension fragment deformation+core short-sequence RNA nanoparticles at 25 DEG C. are as follows:
setting a software detection parameter; and then
clicking Ok to complete the settings, after a measurement dialog box appears, clicking Start to start.
Measurement result potential detection results of the 7 groups of the extension fragment deformation+core short-sequence DNA nanoparticles at 25 DEG C. are as follows: […]

Row | Molecule | Mean particle size (nm) [1] | doxorubicin loading rate [2] | TM value (° C.) [3] [°C] | Potential ZP, Experiment result [4] [mV]
1 | B1 | 6.808 nm | 20.5 | 57.5 | −23.23
2 | B2 | 7.592 nm | 30.9 | 55.2 | −23.50
3 | B3 | 6.936 nm | 27.1 | 54.0 | −18.30
4 | B4 | 6.978 nm | 29.4 | 53.8 | −20.93
5 | B5 | 7,110 nm | 30.2 | 59.5 | −17.90
6 | B6 | 7.520 nm | 34.1 | 54.5 | −21.27
7 | B7 | 6.720 nm | 20.1 | 65.0 | −16.10
